According to the supplement of paper PMC9170038:

Tested on: MS2 coat protein
Experiment: apparent KD of MS2 coat protein; higher = weaker reporter binding
Details: Eterna round: R107
Experimental: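 RNA-MaP round R107: designed RNA switches with theophylline, tryptophan, arginine or FMN aptamers are transcribed on-chip within common flanks. They are titrated with SNAP-549-labelled MS2 coat protein in RNA-MaP buffer (100 mM Tris pH 7.5, 80 mM KCl, 4 mM MgCl2), without ligand or with the indicated ligand. Median apparent KD per design.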

[1] = input ligand: theophylline 20 uM
[2] = input ligand: tryptophan 2.4 mM
[3] = input ligand: theophylline 2 mM

Row | Sequence | apparent KD of MS2 coat protein (input ligand: arginine 13.2 mM) [µM] | apparent KD of MS2 coat protein [1] [µM] | apparent KD of MS2 coat protein [2] [µM] | apparent KD of MS2 coat protein [3] [µM] | apparent KD of MS2 coat protein (input ligand: none) [µM]
1 | AGCCCUGUACUAGAUACCAGCUACAUGAGGAUCACCCAUGUGCGUCAAGACUGACUGUGUGGCCCUUGGCAGCUGCUCGCAUGUA [Exclusion - Theophylline B (Freestyle 1)] | 0.0506 | 0.191 | 0.168 | – | –
2 | AGCGCUAUGCAUGAUACCAGCUACAUGAGGAUCACCCAUGUGCGUCAGAAAUGACUGUGUAGCCCUUGGCAGCAUAAAGCAUGUA [Exclusion - Theophylline B (Freestyle 9)] | 0.0194 | 0.0241 | 0.0172 | – | –
3 | AGCGGAACGGAAGGGUCCCAAAAUUGUGAUACCAGCCUUGAAUCCGGCCCUUGGCAGCACAUGAGGAUCACCCAUGUACUGCGAU [Laanor] | 0.0112 | 0.0192 | 0.0128 | – | –
4 | AGCUCGACUCGCAGCUGGAUGCCCGCUUGCCGAGGACCGGUACGGCCGCCACUCGUCACUCGACAUGAGGAUCACCCAUGUGAUA [theeternabot_exclusion_MS2_Trp_A_32] | 0.0363 | 0.136 | – | 0.14 | –
5 | AGGAGACAUGAGGAUCACCCAUGUCCAGAUACCAGAAUGUCUUUGUUCCCUUGGCAGCUGUGGAAAUCUGACCUGCCUCGGUCUG [theeternabot_sameState_MS2_Theo_A_31] | 0.0146 | 0.0179 | 0.0152 | – | –
6 | AGUAGACACGCGGCCGCCACUUGAGGAUCACCCAGGUGGUGUGUACUUGAAAACAAGUGCACAUCAAGGACCGGGCGUGUCUACA [Omei Tryp B SS D v2] | 0.0129 | 0.0171 | 0.0273 | 0.0139 | –
7 | AGUUCCAGGUCGGCCGCCACUGGCAUGGCCGGUCCUCGGACUUACAUGAGGAUCACCCAUGUGAACAGGACCGGGACCGCAUGGG [Exclusion Tryptophan B GF 24] | 0.0261 | 0.0461 | – | 0.0572 | –
8 | AUAAAUAUAACCGAUACCAGCCUUAUACAUGAGGAUCACCCAUGUUAUGCUUCCUUUCUUGGCCCUUGGCAGCGGAAAUGGGUAA [SSTheo B #13] | 0.0362 | 0.0484 | 0.0447 | – | –
9 | AUAACAUGAGGAUCACCCAUGUAAGCUGAAGGAGCGCUGGAAACAGCAGGUAGGUCGCAGCGGCGACCUUCCUCAUGAAGGUCGC [(M1)-(M2)-(Arg1)-(Arg2)-(A)'-(M)'-(A)''_Design5] | 0.0192 | 0.0256 | 0.0185 | 0.017 | 0.0142
10 | AUAAUGGGUAUCGGAUUAUCAUGGAAUGAUACCAGAUACUUAGAUAUCCCUUGGCAGCAUGAGGACAUGAGGAUCACCCAUGUAU [#03 Exclusion-TheophyllineA] | 0.0313 | 0.0569 | 0.0549 | – | –
11 | AUACAUGAGGAUCACCCAUGUGAUGGCCGGCGAGGACCGGUACGGCCGCCACUCGUGAUCCGUCCUGAAAGCAAAGCUUCCAGCA [Terion] | 0.0374 | 0.273 | – | 0.437 | –
12 | AUACCGAGUGAGUCGUGUUUCUUUUCAGAUACCAGACUUUUCGUUGUCCCUUGGCAGCUGUUUUACAUGAGGAUCACCCAUGUUG [#28 Exclusion-TheophyllineA] | 0.0163 | 0.0181 | 0.0152 | – | –
13 | AUAUAUACAUGAGGAUCACCCAUGUUAUUACGAGGACCGGUACGGCCGCCACUCGAUAGAGUAGAAGUAAAUUUUAAUUCAUGUA [JR_SSTryptoA_Sub007] | 0.0146 | 0.0157 | – | 0.0144 | –
14 | AUAUGAUCAUAUGAUACCAGAAAUGGUAUUCCUUUCUUUCUUACAUGAGGAUCACCCAUGUUCCCUUGGCAGCAUAUGAUCAUAU [ETHB #1] | 0.0907 | 0.21 | 0.153 | – | –
15 | AUAUUAAUCGGAAGGAGCGGUACAUGAGGAUCACCCAUGUGCGAAGCCAGCAGAUCCCGUUACCAGGUAGGUCGCCGAGUUAUGA [Begebe] | 0.0236 | 0.0398 | 0.0307 | 0.0375 | 0.033
16 | AUAUUAAUCGGAAGGAGCGGUACAUGAGGAUCACCCAUGUGGUAAGCUAGCAGAUCCCGUUACCAGGUAGGUCGCCGAGUUAUGA [XArg-B17] | 0.268 | 0.474 | 0.216 | 0.51 | 0.201
17 | AUCAUAAUAGACUCGUUAGAUUAUAUGGAACGAGGACCGGUACGGCCGCCACUCGUGAUGUACAUGAGGAUCACCCAUGUUAGCU [JR_Nu_SSTryptoA_Sub025] | 0.0152 | 0.0188 | – | 0.017 | –
18 | AUCCAUAGCCGAAGGAGCGCAGUAGGAUGACAUGAGGAUCACCCAUGUGUGUGAUGUGGAUUGCAGGUAGGUCGCGGAGUGGGUU [Exclusion - Arginine B (Freestyle 7)] | 0.101 | 0.124 | 0.0797 | 0.134 | 0.0652
19 | AUCGUACCUGAGGAUACCAGCAUGUGAUCAUAACAUGAGGAUCACCCAUGUAAUCAGUGAUGCCCUUGGCAGCUUAGUCGAUACA [Same State - Theophylline B (Freestyle 7)] | 0.0587 | 0.101 | 0.0583 | – | –

Row | Sequence | apparent KD of MS2 coat protein (input ligand: arginine 13.2 mM) [µM] | apparent KD of MS2 coat protein [1] [µM] | apparent KD of MS2 coat protein [2] [µM] | apparent KD of MS2 coat protein [3] [µM] | apparent KD of MS2 coat protein (input ligand: none) [µM]
20 | AUCGUACCUGAUGAUACCAGCAUGUGAUCGUAACAUGAGGAUCACCCAUGUGAUCAGUGAUGCCCUUGGCAGCAUGAUCGGUACA [Same State - Theophylline B (Freestyle 15)] | 0.0366 | 0.0358 | 0.0367 | – | –
21 | AUGCAUAGCACGGCCGCCACUCAAAUUAAACAUGAGGAUCACCCAUGUAACAUGGAUAAAAUAAAGAGGACCGGGUGAAAUGCAA [JR_SSTryptoB_Sub010] | 0.026 | 0.0362 | – | 0.0337 | –
22 | AUGCAUGUCAGAAGGAGCGUCAGUAACAUGAGGAUCACCCAUGUAACAUUGAAUUCGAUGAGACAGGUAGGUCGCUGAAUAGUAA [JR_SSArginiB_Sub019] | 0.0264 | 0.0377 | 0.0278 | 0.0359 | 0.0306
23 | AUGUCGUUGAAUAUAGCGGCUUGGAGUGAUACCAGAAUGAUCCAAUUCCCUUGGCAGCAUUACAUGAGGAUCACCCAUGUUCCAG [SSTheo A #23] | 0.0241 | 0.0555 | 0.0486 | 0.0896 | 0.0371
24 | AUGUGCAAUACGGAUACCAGCCCGUGUAGAUACAUGAGGAUCACCCAUGUCAAUGUAAAUGGCCCUUGGCAGCCGUUUGGGAGGC [theeternabot_sameState_MS2_Theo_B_35] | 0.0134 | 0.0199 | 0.0194 | – | –
25 | AUUCAUAACUGAAGGAGCGUGAUAUAAAUUUUUACAUGAGGAUCACCCAUGUUUCAUAGAUCACAGGUAGGUCGCAGAUUCUCAU [JR_SSArginiB_Sub011] | 0.0368 | 0.0424 | 0.0392 | 0.0429 | 0.0452
26 | AUUGUCGUGUCGGCCGCCACUGUCAUGGUUUUCGUGGAAAACAUGAGGAUCACCCAUGUAAUUGACAGGACCGGGACAUGGCGGC [Ricegesoer] | 0.00935 | 0.0111 | – | 0.0094 | –
27 | AUUUGGCGUAGUGUUGCUCGUGGGAUAAAACGAGGACCGGUACGGCCGCCACUCGAUGAUUAACAUGAGGAUCACCCAUGUAAAU [theeternabot_exclusion_MS2_Trp_A_22] | 0.0175 | 0.0306 | – | 0.0322 | –
28 | CAAAAUGCGGCGGCCGCCACUCAGCUCCGUGUGGUUGGUCAUCUUAACAUGAGGAUCACCCAUGUGAGGACCGGGCCAGCGAGUG [theeternabot_exclusion_MS2_Trp_B_38] | 0.0133 | 0.0196 | – | 0.017 | –
29 | CAAAAUUACGGAAGGAGCGCGGGUAGGCGGGUUGGAUCACAUGAGGAUCACCCAUGUAAAUCGCAGGUAGGUCGCCGUAAACGCG [Eslagele] | 0.0456 | 0.0439 | 0.036 | 0.0769 | 0.0288
30 | CAAGAGUUGUACAUUGUGAGGCGUCGGGAACGAGGACCGGUACGGCCGCCACUCGAAAAUUAACAUGAGGAUCACCCAUGUACAC [theeternabot_exclusion_MS2_Trp_A_35] | 0.0361 | 0.0727 | – | 0.0828 | –
31 | CAAUAAGUACCGGUCCUCAGAUCCUCAUGACGAGGACCGGUACGGCCGCCACUCGAAACAUGAGGAUCACCCAUGUAAUAAUAAU [Brourdmod01] | 0.0153 | 0.0314 | – | 0.0242 | –
32 | CACAGUGCGAAUUUGAAUUCGCACGAUCCUCGAGGACCGGUACGGCCGCCACUCGCGCGGGUCGUACAUGAGGAUCACCCAUGUC [Quermavebe] | 0.025 | 0.233 | – | 1.19 | –
33 | CACGCACGAUCGGCCGCCACUCAUGUAGCUUACAUGAGGAUCACCCAUGUAUUUUCUUUCUUAUAGAGGACCGGGAUCGUGCGUG [#04 Same State - Tryptophan B] | 0.021 | 0.0282 | – | 0.0245 | –
34 | CACGGACGAGUGGAUCACCCUUGUAAUAACCGAGGACCGGUACGGCCGCCACUCGAAAACCGUGACCUGUACGAAAAGUGCAGGA | 0.0142 | 0.148 | 0.195 | 0.466 | 0.0265
35 | CACUUCAUGUGAGAUACCAGUGCCUUACAUGAGGAUCACCCAUGUCGUAAUGUGGAGAAGCACCCUUGGCAGCUCGCUUCGAGUG [Theo B SS t6] | 0.0572 | 0.0916 | 0.0876 | – | –
36 | CAGCACAUGAGGAUCACCCAUGUGAGGGAUACCAGCUCAGGCGUGGGCCCUUGGCAGCUCUGUGGCUGACGAAAGUCAGCCUCUG [#18 SameState-TheophyllineA] | 0.0134 | 0.0177 | 0.0134 | 0.0154 | 0.0146
37 | CAGGUUAGGGCGGCCGCCACUGUGGCUACGGUACAUGAGGAUCACCCAUGUUUGUGGUUGAUCUACAGGACCGGGCCCUGACACG [Matidier] | 0.0489 | 0.145 | 0.272 | 0.665 | 0.236
